Test results: PMC4176178, “An evolutionarily conserved interaction of tumor suppressor protein Pdcd4 with the poly(A)-binding protein contributes to translation suppression by Pdcd4”

Key:
GST-Pdcd4 wt = target: T1, GST-Pdcd4 wt (human, UniProt Q53EL6 1-469); test: EMSA; EMSA: 10 mM Tris-HCl pH 7.8, 100 mM NaCl, 1 mM EDTA, 2% ficoll, 30 min on ice; blot: 10 mM Tris-HCl pH 7.5, 5 mM KCl, 2 mM MgCl2, room temperature; poly(U): 10; conditions: protein: recombinant; tags: GST; label: 5' 32P; single strand
T1 sequence: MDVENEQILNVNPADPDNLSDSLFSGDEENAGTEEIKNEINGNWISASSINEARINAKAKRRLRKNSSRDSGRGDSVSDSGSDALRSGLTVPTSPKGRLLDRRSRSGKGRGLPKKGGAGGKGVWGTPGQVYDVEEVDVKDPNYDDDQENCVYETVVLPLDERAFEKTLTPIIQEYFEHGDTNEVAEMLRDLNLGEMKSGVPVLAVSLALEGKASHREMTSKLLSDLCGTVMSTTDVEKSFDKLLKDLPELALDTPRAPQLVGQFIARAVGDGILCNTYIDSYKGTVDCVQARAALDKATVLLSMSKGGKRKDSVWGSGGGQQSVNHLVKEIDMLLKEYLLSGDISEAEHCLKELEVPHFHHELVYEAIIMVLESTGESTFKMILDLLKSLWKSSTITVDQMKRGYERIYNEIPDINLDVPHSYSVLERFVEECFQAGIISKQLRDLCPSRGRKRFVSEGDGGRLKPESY

His-PABP-RRM1-4 = His-PABP-RRM1-4 (mouse, UniProt P29341 1-375); test: as above; conditions: protein: recombinant; tags: His; label: 5' 32P; single strand
Sequence of His-PABP-RRM1-4 (P29341 1-375): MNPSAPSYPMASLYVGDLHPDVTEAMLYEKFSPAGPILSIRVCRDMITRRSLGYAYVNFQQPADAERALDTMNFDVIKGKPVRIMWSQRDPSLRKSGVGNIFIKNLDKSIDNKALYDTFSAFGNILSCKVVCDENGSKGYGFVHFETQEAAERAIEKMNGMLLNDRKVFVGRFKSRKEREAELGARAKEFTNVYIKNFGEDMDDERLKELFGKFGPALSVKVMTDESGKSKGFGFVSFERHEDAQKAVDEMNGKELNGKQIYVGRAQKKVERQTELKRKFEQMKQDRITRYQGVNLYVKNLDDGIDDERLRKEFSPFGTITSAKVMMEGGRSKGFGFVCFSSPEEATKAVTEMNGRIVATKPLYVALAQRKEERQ

## AAAAAAAAAAAAAAAAAAAAAAAAA (ssRNA) [oligo(A)25]
GST-Pdcd4 wt
  binding result: no binding
His-PABP-RRM1-4
  binding result: binds
